In US20250032605A1:

How the values were obtained:
[1] = target: rsYNLF-34C (v2 resurfaced YNLF_34C RBD carrying SARS-2 residues 401-507) (bat sarbecovirus YNLF_34C; SARS-CoV-2)
[2] = target: SARS-2^hg monomer (hyperglycosylated SARS-2 RBD) (SARS-CoV-2 (engineered)) (UniProt P0DTC2)
[3] = target: SARS-2^hg monomer (hyperglycosylated SARS-2 RBD) (SARS-CoV-2 (engineered)) (UniProt P0DTC2); experiment: BLI, Fab on FAB2G sensor, hyperglycosylated construct as analyte

B38 Fab
Kd [1]: 1400 nM
Kd [2]: 2100 nM
fold decrease in affinity for B38 [3]: 2 fold
